Data reported in article PMC314469, “Protein Interaction Networks by Proteome Peptide Scanning” (PLoS Biology, 2004).

T1: Boi1 SH3 (BOI1_YEAST), P38041
T1 chain: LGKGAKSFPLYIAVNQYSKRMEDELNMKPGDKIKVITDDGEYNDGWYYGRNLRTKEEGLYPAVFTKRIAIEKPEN

T2: Boi2 SH3 (BOI2_YEAST), P39969
T2 chain: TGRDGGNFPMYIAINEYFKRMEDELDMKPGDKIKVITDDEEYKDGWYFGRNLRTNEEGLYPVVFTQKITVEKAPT

T3: Myo5 SH3 (MYO5_YEAST), Q04439
T3 chain: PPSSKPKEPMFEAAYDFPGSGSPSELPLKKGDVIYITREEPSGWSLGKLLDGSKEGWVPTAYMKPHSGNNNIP

T4: Rvs167 SH3 (RV167_YEAST), P39743
T4 chain: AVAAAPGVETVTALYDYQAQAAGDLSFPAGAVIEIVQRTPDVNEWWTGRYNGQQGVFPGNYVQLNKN

T5: Yfr024 SH3 (LSB3_YEAST), P43603
T5 chain: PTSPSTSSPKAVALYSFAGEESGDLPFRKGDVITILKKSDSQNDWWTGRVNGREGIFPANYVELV

T6: Yhr016c SH3 (YSC84_YEAST), P32793
T6 chain: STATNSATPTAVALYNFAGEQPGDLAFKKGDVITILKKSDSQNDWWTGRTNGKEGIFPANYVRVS


Target: T1, Boi1 SH3 (BOI1_YEAST), P38041
Assay: SPOT array

Row | Binder | normalised SPOT signal, Boehringer light units (BLU); mean over the file's lines of this peptide
1 | NPIPKSVPLHPKSG [YEL019C 6-19] | 225
2 | NSFRKILPQEPEIW [YBR055C 389-402] | 1170
3 | NTIIKLFPYIPIPV [YLR142W 90-103] | 88.2
4 | NSNVRIPPTVPSKI [YGR198W 3-16] | 178
5 | NTIIKFDPGRPIYN [YKL178C 251-264] | 49.7
6 | NSTVRRKPHSPNKK [YDR223W 8-21] | 481
7 | NSGEKIYPQEPPIS [YJL020C 582-595] | 53.9
8 | NRANKYDPKGPIYN [YOL049W 169-182] | 545
9 | NQIARQIPFQPWYL [YLR083C 510-523] | 22.9
10 | NPMQKPVPFVPVLD [YKL182W 1009-1022] | 66.8
11 | NQIARQIPYQPWYL [YDR107C 515-528] | 105
12 | NSFSKNDPNFPILK [YFL036W 156-169] | 203
13 | NRKQRSIPLSPIVP [YEL009C 209-222] | 2120
14 | NSVIRGSPGLPDTL [YPL066W 13-26] | 228

Target: T2, Boi2 SH3 (BOI2_YEAST), P39969
Assay: SPOT array

Row | Binder | normalised SPOT signal, Boehringer light units (BLU); mean over the file's lines of this peptide
15 | NPIPKSVPLHPKSG [YEL019C 6-19] | 7.9
16 | NSFRKILPQEPEIW [YBR055C 389-402] | 219
17 | NTIIKLFPYIPIPV [YLR142W 90-103] | 29.7
18 | NSNVRIPPTVPSKI [YGR198W 3-16] | 16.9
19 | NTIIKFDPGRPIYN [YKL178C 251-264] | 17.6
20 | NSTVRRKPHSPNKK [YDR223W 8-21] | 102
21 | NSGEKIYPQEPPIS [YJL020C 582-595] | 0
22 | NRANKYDPKGPIYN [YOL049W 169-182] | 0
23 | NQIARQIPFQPWYL [YLR083C 510-523] | 36.1
24 | NPMQKPVPFVPVLD [YKL182W 1009-1022] | 50.2
25 | NQIARQIPYQPWYL [YDR107C 515-528] | 37.7
26 | NSFSKNDPNFPILK [YFL036W 156-169] | 34.2
27 | NRKQRSIPLSPIVP [YEL009C 209-222] | 77.3
28 | NSVIRGSPGLPDTL [YPL066W 13-26] | 35

Target: T3, Myo5 SH3 (MYO5_YEAST), Q04439
Assay: SPOT array

Row | Binder | normalised SPOT signal, Boehringer light units (BLU); mean over the file's lines of this peptide
29 | NPIPKSVPLHPKSG [YEL019C 6-19] | 364
30 | NSFRKILPQEPEIW [YBR055C 389-402] | 235
31 | NTIIKLFPYIPIPV [YLR142W 90-103] | 204
32 | NSNVRIPPTVPSKI [YGR198W 3-16] | 423
33 | NTIIKFDPGRPIYN [YKL178C 251-264] | 272
34 | NSTVRRKPHSPNKK [YDR223W 8-21] | 956
35 | NSGEKIYPQEPPIS [YJL020C 582-595] | 112
36 | NRANKYDPKGPIYN [YOL049W 169-182] | 205
37 | NQIARQIPFQPWYL [YLR083C 510-523] | 248
38 | NPMQKPVPFVPVLD [YKL182W 1009-1022] | 420
39 | NQIARQIPYQPWYL [YDR107C 515-528] | 164
40 | NSFSKNDPNFPILK [YFL036W 156-169] | 160
41 | NRKQRSIPLSPIVP [YEL009C 209-222] | 491
42 | NSVIRGSPGLPDTL [YPL066W 13-26] | 151

Target: T4, Rvs167 SH3 (RV167_YEAST), P39743
Assay: SPOT array

Row | Binder | normalised SPOT signal, Boehringer light units (BLU); mean over the file's lines of this peptide
43 | NPIPKSVPLHPKSG [YEL019C 6-19] | 7.3
44 | NSFRKILPQEPEIW [YBR055C 389-402] | 524
45 | NTIIKLFPYIPIPV [YLR142W 90-103] | 60.5
46 | NSNVRIPPTVPSKI [YGR198W 3-16] | 155
47 | NTIIKFDPGRPIYN [YKL178C 251-264] | 72.3
48 | NSTVRRKPHSPNKK [YDR223W 8-21] | 722
49 | NSGEKIYPQEPPIS [YJL020C 582-595] | 43.4
50 | NRANKYDPKGPIYN [YOL049W 169-182] | 109
51 | NQIARQIPFQPWYL [YLR083C 510-523] | 100
52 | NPMQKPVPFVPVLD [YKL182W 1009-1022] | 284
53 | NQIARQIPYQPWYL [YDR107C 515-528] | 33.3
54 | NSFSKNDPNFPILK [YFL036W 156-169] | 82.4
55 | NRKQRSIPLSPIVP [YEL009C 209-222] | 307
56 | NSVIRGSPGLPDTL [YPL066W 13-26] | 251

The binders below were run against Sho1 SH3 (SHO1_YEAST), P40073 (assay: SPOT array).
Sequence of Sho1 SH3 (SHO1_YEAST), P40073 (P40073 295-366): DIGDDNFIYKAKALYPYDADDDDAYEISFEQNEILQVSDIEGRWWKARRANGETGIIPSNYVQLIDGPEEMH

Row | Binder | normalised SPOT signal, Boehringer light units (BLU); mean over the file's lines of this peptide
57 | NPIPKSVPLHPKSG [YEL019C 6-19] | 28.7
58 | NSFRKILPQEPEIW [YBR055C 389-402] | 1820
59 | NTIIKLFPYIPIPV [YLR142W 90-103] | 42.7
60 | NSNVRIPPTVPSKI [YGR198W 3-16] | 1460
61 | NTIIKFDPGRPIYN [YKL178C 251-264] | 144
62 | NSTVRRKPHSPNKK [YDR223W 8-21] | 147
63 | NSGEKIYPQEPPIS [YJL020C 582-595] | 25.7
64 | NRANKYDPKGPIYN [YOL049W 169-182] | 21.7
65 | NQIARQIPFQPWYL [YLR083C 510-523] | 75.8
66 | NPMQKPVPFVPVLD [YKL182W 1009-1022] | 191
67 | NQIARQIPYQPWYL [YDR107C 515-528] | 47.5
68 | NSFSKNDPNFPILK [YFL036W 156-169] | 106
69 | NRKQRSIPLSPIVP [YEL009C 209-222] | 183
70 | NSVIRGSPGLPDTL [YPL066W 13-26] | 35.5

Target: T5, Yfr024 SH3 (LSB3_YEAST), P43603
Assay: SPOT array

Row | Binder | normalised SPOT signal, Boehringer light units (BLU); mean over the file's lines of this peptide
71 | NPIPKSVPLHPKSG [YEL019C 6-19] | 88.1
72 | NSFRKILPQEPEIW [YBR055C 389-402] | 1280
73 | NTIIKLFPYIPIPV [YLR142W 90-103] | 84.5
74 | NSNVRIPPTVPSKI [YGR198W 3-16] | 1510
75 | NTIIKFDPGRPIYN [YKL178C 251-264] | 63.3
76 | NSTVRRKPHSPNKK [YDR223W 8-21] | 821
77 | NSGEKIYPQEPPIS [YJL020C 582-595] | 22.7
78 | NRANKYDPKGPIYN [YOL049W 169-182] | 58
79 | NQIARQIPFQPWYL [YLR083C 510-523] | 312
80 | NPMQKPVPFVPVLD [YKL182W 1009-1022] | 2450
81 | NQIARQIPYQPWYL [YDR107C 515-528] | 145
82 | NSFSKNDPNFPILK [YFL036W 156-169] | 58.8
83 | NRKQRSIPLSPIVP [YEL009C 209-222] | 1250
84 | NSVIRGSPGLPDTL [YPL066W 13-26] | 241

Target: T6, Yhr016c SH3 (YSC84_YEAST), P32793
Assay: SPOT array

Row | Binder | normalised SPOT signal, Boehringer light units (BLU); mean over the file's lines of this peptide
85 | NPIPKSVPLHPKSG [YEL019C 6-19] | 467
86 | NSFRKILPQEPEIW [YBR055C 389-402] | 1260
87 | NTIIKLFPYIPIPV [YLR142W 90-103] | 211
88 | NSNVRIPPTVPSKI [YGR198W 3-16] | 113
89 | NTIIKFDPGRPIYN [YKL178C 251-264] | 10.4
90 | NSTVRRKPHSPNKK [YDR223W 8-21] | 1830
91 | NSGEKIYPQEPPIS [YJL020C 582-595] | 16.6
92 | NRANKYDPKGPIYN [YOL049W 169-182] | 77.6
93 | NQIARQIPFQPWYL [YLR083C 510-523] | 50.4
94 | NPMQKPVPFVPVLD [YKL182W 1009-1022] | 299
95 | NQIARQIPYQPWYL [YDR107C 515-528] | 42.8
96 | NSFSKNDPNFPILK [YFL036W 156-169] | 57.1
97 | NRKQRSIPLSPIVP [YEL009C 209-222] | 521
98 | NSVIRGSPGLPDTL [YPL066W 13-26] | 296
